Two substances from publication PMC5835332 can be followed below.

The assay deals with actin from bovine muscle, monomerized (G-actin), labelled with NT-647 dye (bovine) (UniProt P68138). The assay is described as follows: MST.

By Kd is commonly meant the equilibrium constant for the complex coming apart. Read a low Kd as tighter binding. In turn, “F1_(P97-232), recombinant fragment of the P97 cilium adhesin (amino acids 106-758) (domain or fragment)” displayed a Kd of 34.2 nM.

Turning to “F3_(P97-232), recombinant fragment of the P97 cilium adhesin (amino acids 768-938) (domain or fragment)”, the Kd worked out at 1790 nM.
